The text below walks through data of PMC6375729 (Molecular Cell, 2019).

Common to all, as to conditions: both partners purified
The target of assay [1] is BRD4 first bromodomain (BD1), N44-E168 (human, UniProt O60885-1 44-168). Kind of assay: ITC; peptide in the syringe titrated into protein in the cell; 15 °C; 50 mM HEPES pH 7.5, 150 mM NaCl; single binding site model. On the technique in general: Isothermal titration calorimetry measures the heat released or taken up as one component is titrated into another.
Assay [2] has as its target BRD4 second bromodomain (BD2), D334-E460 (human, UniProt O60885-1 334-460). The description is as above.
The target of assay [3] is hexa-His-tagged BRD4 extra-terminal domain (BRD4/ET) (human, UniProt O60885-1 589-676). The assay is described as follows: peptide or protein array; cellulose SPOT peptide arrays probed with hexa-His-tagged BRD4 domains, detected with HRP-conjugated anti-His antibody.

Where no end group is shown, it is not given here.

RRRK(Ac)RFK(Ac)RHQ [FOXD3 K235ac/K238ac peptide]: in assay [1], the Kd came to 63.6 ± 1.6 µM and the “stoichiometry N” value was 0.64 ± 0.026. Also, in assay [2], binding was characterised by a dissociation constant (Kd) of 7.75 ± 0.12 µM and the “stoichiometry N” value worked out at 0.75 ± 0.029.

For the molecule HFAK(Ac)ARK(Ac)VPS [FOXN3 K426ac/K429ac peptide], in assay [1], the Kd was 37.8 ± 3.61 µM and the “stoichiometry N” value was found to be 0.62 ± 0.311. Moreover, in assay [2], binding was put at a Kd of 25.7 ± 1.8 µM and the “stoichiometry N” value came out at 0.59 ± 0.018.

As to IHCK(Ac)AGK(Ac)GRT [PTEN K125ac/K128ac peptide], in assay [1], the Kd was 137 ± 16.9 µM and the “stoichiometry N” value was 0.81 ± 0.082. Moreover, in assay [2], the Kd was 44.8 ± 3.03 µM and the “stoichiometry N” value was 0.6 ± 0.021.

B1: RPS26 peptide region, residues 31-48 (SPOT) (peptide, UniProt P62854 31-48, looked up)
peptide: PKDKAIKKFVIRNIVEAA
notes: RPS26 residues 31-48, motif printed as KFVIK; source: synthesised on cellulose membrane (SPOT)
On to B1, for which the binding result in assay [3] is listed as “binds”.

B2: WHSC1L1 peptide, amino acids 147–162 (SPOT) (peptide, UniProt Q9BZ95 147-162, looked up)
peptide: KTGSPEIKLKITKTIQ
notes: source: synthesised on cellulose membrane (SPOT)
As to B2, in assay [3], the binding result is listed as “binds”.

For LTNK(Ac)GHK(Ac)WKQ [DMTF1 K147ac/K150ac peptide], in assay [1], the Kd turned out to be 70.4 ± 3 µM and the “stoichiometry N” value came out at 0.99 ± 0.061. Also, in assay [2], the Kd amounted to 29.4 ± 1.84 µM and the “stoichiometry N” value stood at 1.1 ± 0.031.

Turning to DGGK(Ac)SGK(Ac)APR [FOXO3 K242ac/K245ac peptide], in assay [1], the Kd amounted to 16.4 ± 0.5 µM and the “stoichiometry N” value was found to be 0.49 ± 0.005. For the same molecule, in assay [2], binding was characterised by a dissociation constant (Kd) of 44.4 ± 2.89 µM and the “stoichiometry N” value is 0.64 ± 0.021.

With NSNK(Ac)YTK(Ac)SRG [FOXO3 K259ac/K262ac peptide], in assay [1], the Kd was 158 ± 20.1 µM and the “stoichiometry N” value came out at 0.58 ± 0.385.

In general, Kd refers to the concentration at which binding is half-saturated. High values mean a looser complex, low ones a tighter complex. As usually defined, the stoichiometry N is a count of units in the complex or per binding partner.
